Measurements taken from IntAct's records for PubMed 39243984.

B1: Mothers against decapentaplegic homolog 4 (Homo sapiens), Q13485 (parent)
chain: MDNMSITNTPTSNDACLSIVHSLMCHRQGGESETFAKRAIESLVKKLKEKKDELDSLITAITTNGAHPSKCVTIQRTLDGRLQVAGRKGFPHVIYARLWRWPDLHKNELKHVKYCQYAFDLKCDSVCVNPYHYERVVSPGIDLSGLTLQSNAPSSMMVKDEYVHDFEGQPSLSTEGHSIQTIQHPPSNRASTETYSTPALLAPSESNATSTANFPNIPVASTSQPASILGGSHSEGLLQIASGPQPGQQQNGFTGQPATYHHNSTTTWTGSRTAPYTPNLPHHQNGHLQHHPPMPPHPGHYWPVHNELAFQPPISNHPAPEYWCSIAYFEMDVQVGETFKVPSSCPIVTVDGYVDPSGGDRFCLGQLSNVHRTEAIERARLHIGKGVQLECKGEGDVWVRCLSDHAVFVQSYYLDREAGRAPGDAVHKIYPSAYIKVFDLRQCHRQMQQQAATAQAAAAAQAAAVAGNIPGPGSVGGIAPAISLSAAAGIGVDDLRRLCILRMSFVKGWGPDYPRQSIKETPCWIEIHLHRALQLLDEVLHTMPIADPQPLD

Variants of: B1
Conditions: with smad3_human SMAD3, P84022
Chain of smad3_human SMAD3, P84022 (P84022 whole entry, looked up): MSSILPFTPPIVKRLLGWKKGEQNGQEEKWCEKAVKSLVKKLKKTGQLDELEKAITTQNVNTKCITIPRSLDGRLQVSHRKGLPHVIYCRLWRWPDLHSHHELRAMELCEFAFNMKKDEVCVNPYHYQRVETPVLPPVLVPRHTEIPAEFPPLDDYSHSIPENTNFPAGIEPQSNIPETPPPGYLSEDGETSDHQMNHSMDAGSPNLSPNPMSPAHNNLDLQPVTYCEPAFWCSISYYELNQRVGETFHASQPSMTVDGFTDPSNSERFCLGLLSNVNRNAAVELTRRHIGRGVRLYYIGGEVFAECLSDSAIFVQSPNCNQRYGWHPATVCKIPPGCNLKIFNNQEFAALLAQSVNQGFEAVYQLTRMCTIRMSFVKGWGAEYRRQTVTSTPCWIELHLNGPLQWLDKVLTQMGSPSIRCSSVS

Row | Variant | effect of a mutation on the interaction
1 | R361H | decreasing interaction strength
2 | R361C | decreasing interaction strength

Variants of: B1
Conditions: with smad3_human SMAD3, P84022
Remark: another data set of the same source

Row | Variant | effect of a mutation on the interaction
3 | I500V | increasing interaction strength
